{"source": "patent US9618524B2", "about": "“Method, composition, isolation and identification of a plaque particle and related biomarker” (Plaxgen Inc., priority 2012, dated 2017)", "molecules": {"B1": {"name": "Corticosteroid-binding globulin (protein)", "chain": "MDPNAAYVNMSNHHRGLASANVDFAFSLYKHLVALSPKKNIFISPVSISMALAMLSLGTCGHTRAQLLQGLGFNLTERSETEIHQGFQHLHQLFAKSDTSLEMTMGNALFLDGSLELLESFSADIKHYYESEVLAMNFQDWATASRQINSYVKNKTQGKIVDLFSGLDSPAILVLVNYIFFKGTWTQPFDLASTREENFYVDETTVVKVPMMLQSSTISYLHDSELPCQLVQMNYVGNGTVFFILPDKGKMNTVIAALSRDTINRWSAGLTSSQVDLYIPKVTISGVYDLGDVLEEMGIADLFTNQANFSRITQDAQLKSSKVVHKAVLQLNEEGVDTAGSTGVTLNLTSKPIILRFNQPFIIMIFDHFTWSSLFLARVMNPV"}, "B2": {"name": "Carboxypeptidase N subunit 2 (protein)", "chain": "CPMGCDCFVQEVFCSDEELATVPLDIPPYTKNIIFVETSFTTLETRAFGSNPNLTKVVFLNTQLCQFRPDAFGGLPRLEDLEVTGSSFLNLSTNIFSNLTSLGKLTLNFNMLEALPEGLFQHLAALESLHLQGNQLQALPRRLFQPLTHLKTLNLAQNLLAQLPEELFHPLTSLQTLKLSNNALSGLPQGVFGKLGSLQELFLDSNNISELPPQVFSQLFCLERLWLQRNAITHLPLSIFASLGNLTFLSLQWNMLRVLPAGLFAHTPCLVGLSLTHNQLETVAEGTFAHLSNLRSLMLSYNAITHLPAGIFRDLEELVKLYLGSNNLTALHPALFQNLSKLELLSLSKNQLTTLPEGIFDTNYNLFNLALHGNPWQCDCHLAYLFNWLQQYTDRLLNIQTYCAGPAYLKGQVVPALNEKQLVCPVTRDHLGFQVTWPDESKAGGSWDLAVQERAARSQCTYSNPEGTVVLACDQAQCRWLNVQLSPQQGSLGLQYNASQEWDLRSSCGSLRLTVSIEARAAGP"}, "B3": {"name": "Pigment epithelium-derived factor (protein)", "chain": "QNPASPPEEGSPDPDSTGALVEEEDPFFKVPVNKLAAAVSNFGYDLYRVRSSTSPTTNVLLSPLSVATALSALSLGAEQRTESIIHRALYYDLISSPDIHGTYKELLDTVTAPQKNLKSASRIVFEKKLRIKSSFVAPLEKSYGTRPRVLTGNPRLDLQEINNWVQAQMKGKLARSTKEIPDEISILLLGVAHFKGQWVTKFDSRKTSLEDFYLDEERTVRVPMMSDPKAVLRYGLDSDLSCKIAQLPLTGSMSIIFFLPLKVTQNLTLIEESLTSEFIHDIDRELKTVQAVLTVPKLKLSYEGEVTKSLQEMKLQSLFDSPDFSKITGKPIKLTQVEHRAGFEWNEDGAGTTPSPGLQPAHLTFPLDYHLNQPFIFVLRDTDTGALLFIGKILDPRGP"}, "B4": {"name": "Leucine-rich alpha-2-glycoprotein (protein)", "chain": "VTLSPKDCQVFRSDHGSSISCQPPAEIPGYLPADTVHLAVEFFNLTHLPANLLQGASKLQELHLSSNGLESLSPEFLRPVPQLRVLDLTRNALTGLPPGLFQASATLDTLVLKENQLEVLEVSWLHGLKALGHLDLSGNRLRKLPPGLLANFTLLRTLDLGENQLETLPPDLLRGPLQLERLHLEGNKLQVLGKDLLLPQPDLRYLFLNGNKLARVAAGAFQGLRQLDMLDLSNNSLASVPEGLWASLGQPNWDMRDGFDISGNPWICDQNLSDLYRWLQAQKDKMFSQNDTRCAGPEAVKGQTLLAVAKSQ"}, "B5": {"name": "Serum amyloid A-4 protein (protein)", "chain": "ESWRSFFKEALQGVGDMGRAYWDIMISNHQNSNRYLYARGNYDAAQRGPGGVWAAKLISRSRVYLQGLIDCYLFGNSSTVLEDSKSNEKAEEWGRSGKDPDRFRPDGLPKKY"}, "B6": {"name": "Isoform 2 of Apolipoprotein L1 (protein)", "chain": "EEAGARVQQNVPSGTDTGDPQSKPLGDWAAGTMDPESSIFIEDAIKYFKEKVSTQNLLLLLTDNEAWNGFVAAAELPRNEADELRKALDNLARQMIMKDKNWHDKGQQYRNWFLKEFPRLKSELEDNIRRLRALADGVQKVHKGTTIANVVSGSLSISSGILTLVGMGLAPFTEGGSLVLLEPGMELGITAALTGITSSTMDYGKKWWTQAQAHDLVIKSLDKLKEVREFLGENISNFLSLAGNTYQLTRGIGKDIRALRRARANLQSVPHASASRPRVTEPISAESGEQVERVNEPSILEMSRGVKLTDVAPVSFFLVLDVVYLVYESKHLHEGAKSETAEELKKVAQELEEKLNILNNNYKILQADQEL"}, "B7": {"name": "Kallistatin (protein)", "chain": "QLHVEHDGESCSNSSHQQILETGEGSPSLKIAPANADFAFRFYYLIASETPGKNIFFSPLSISAAYAMLSLGACSHSRSQILEGLGFNLTELSESDVHRGFQHLLHTLNLPGHGLETRVGSALFLSHNLKFLAKFLNDTMAVYEAKLFHTNFYDTVGTIQLINDHVKKETRGKIVDLVSELKKDVLMVLVNYIYFKALWEKPFISSRTTPKDFYVDENTTVRVPMMLQDQEHHWYLHDRYLPCSVLRMDYKGDATVFFILPNQGKMREIEEVLTPEMLMRWNNLLRKRNFYKKLELHLPKFSISGSYVLDQILPRLGFTDLFSKWADLSGITKQQKLEASKSFHKATLDVDEAGTEAAAATSFAIKFFSAQTNRHILRFNRPFLVVIFSTSTQSVLFLGKVVDPTKP"}, "B8": {"name": "Insulin-like growth factor-binding protein complex (protein)", "chain": "ADPGTPGEAEGPACPAACVCSYDDDADELSVFCSSRNLTRLPDGVPGGTQALWLDGNNLSSVPPAAFQNLSSLGFLNLQGGQLGSLEPQALLGLENLCHLHLERNQLRSLALGTFAHTPALASLGLSNNRLSRLEDGLFEGLGSLWDLNLGWNSLAVLPDAAFRGLGSLRELVLAGNRLAYLQPALFSGLAELRELDLSRNALRAIKANVFVQLPRLQKLYLDRNLIAAVAPGAFLGLKALRWLDLSHNRVAGLLEDTFPGLLGLRVLRLSHNAIASLRPRTFKDLHFLEELQLGHNRIRQLAERSFEGLGQLEVLTLDHNQLQEVKAGAFLGLTNVAVMNLSGNCLRNLPEQVFRGLGKLHSLHLEGSCLGRIRPHTFTGLSGLRRLFLKDNGLVGIEEQSLWGLAELLELDLTSNQLTHLPHRLFQGLGKLEYLLLSRNRLAELPADALGPLQRAFWLDVSHNRLEALPNSLLAPLGRLRYLSLRNNSLRTFTPQPPGLERLWLEGNPWDCGCPLKALRDFALQNPSAVPRFVQAICEGDDCQPPAYTYNNITCASPPEVVGLDLRDLSEAHFAPC"}}}
{"target": "T1, Abeta-42 plaque particles (Homo sapiens, UniProt P05067)", "T1 construct": "Abeta 1-42", "assay": "Mass spectroscopy proteomics, semi-quantitative binding affinity of serum proteins (plaqueproteome, Table 2)", "conditions": "higher number = stronger affinity", "summary_of_the_method": "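AD patient serum or plasma (50% in PBS) was incubated with Abeta-42 aggregates (30 μg) for 1 h at 37 °C, then stained with Thioflavin S for 30 min. Labeled particles were FACS-sorted, trypsin/Lys-C digested overnight and analyzed by MS/MS. Sequest searched human UniProt; Scaffold/Protein Prophet validated the identifications.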"}
{"molecule": "B1", "Semi-quantitative analysis of proteins binding to different plaque particles: Abeta-42": 0}
{"molecule": "B2", "Semi-quantitative analysis of proteins binding to different plaque particles: Abeta-42": 0}
{"molecule": "B3", "Semi-quantitative analysis of proteins binding to different plaque particles: Abeta-42": 5}
{"molecule": "B4", "Semi-quantitative analysis of proteins binding to different plaque particles: Abeta-42": 2}
{"molecule": "B5", "Semi-quantitative analysis of proteins binding to different plaque particles: Abeta-42": 2}
{"molecule": "B6", "Semi-quantitative analysis of proteins binding to different plaque particles: Abeta-42": 0}
{"molecule": "B7", "Semi-quantitative analysis of proteins binding to different plaque particles: Abeta-42": 0}
{"molecule": "B8", "Semi-quantitative analysis of proteins binding to different plaque particles: Abeta-42": 0}
{"tested_on": "High Density cholesterol (Chl Large) plaque particles", "assay": "Mass spectroscopy proteomics, semi-quantitative binding affinity of serum proteins (plaqueproteome, Table 2)", "parameters": "species or system human", "conditions": "higher number = stronger affinity", "summary_of_the_method": "(§1)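 Proteins bound to flow-sorted cholesterol plaque particles (large/high-density or small/low-density gates) were identified by LC-MS/MS after trypsin digestion. Particles were formed from 50% atherosclerotic serum or plasma with 30 μg cholesterol aggregates, 1 h, 37 °C. Sequest human database search; Scaffold validation.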"}
{"molecule": "B1", "Semi-quantitative analysis of proteins binding to different plaque particles: Chl Large": 2}
{"molecule": "B2", "Semi-quantitative analysis of proteins binding to different plaque particles: Chl Large": 0}
{"molecule": "B3", "Semi-quantitative analysis of proteins binding to different plaque particles: Chl Large": 4}
{"molecule": "B4", "Semi-quantitative analysis of proteins binding to different plaque particles: Chl Large": 2}
{"molecule": "B5", "Semi-quantitative analysis of proteins binding to different plaque particles: Chl Large": 1}
{"molecule": "B6", "Semi-quantitative analysis of proteins binding to different plaque particles: Chl Large": 1}
{"molecule": "B7", "Semi-quantitative analysis of proteins binding to different plaque particles: Chl Large": 1}
{"molecule": "B8", "Semi-quantitative analysis of proteins binding to different plaque particles: Chl Large": 1}
{"tested_on": "Low density cholesterol (Chl small) plaque particles", "assay": "Mass spectroscopy proteomics, semi-quantitative binding affinity of serum proteins (plaqueproteome, Table 2)", "parameters": "species or system human", "conditions": "higher number = stronger affinity", "summary_of_the_method": "as §1"}
{"molecule": "B1", "Semi-quantitative analysis of proteins binding to different plaque particles: Chl small": 3}
{"molecule": "B2", "Semi-quantitative analysis of proteins binding to different plaque particles: Chl small": 1}
{"molecule": "B3", "Semi-quantitative analysis of proteins binding to different plaque particles: Chl small": 3}
{"molecule": "B4", "Semi-quantitative analysis of proteins binding to different plaque particles: Chl small": 3}
{"molecule": "B5", "Semi-quantitative analysis of proteins binding to different plaque particles: Chl small": 1}
{"molecule": "B6", "Semi-quantitative analysis of proteins binding to different plaque particles: Chl small": 1}
{"molecule": "B7", "Semi-quantitative analysis of proteins binding to different plaque particles: Chl small": 0}
{"molecule": "B8", "Semi-quantitative analysis of proteins binding to different plaque particles: Chl small": 1}
{"target": "T2, alpha-synuclein plaque particles (Homo sapiens, UniProt P37840)", "T2 construct": "140 amino acids polypeptide", "assay": "Mass spectroscopy proteomics, semi-quantitative binding affinity of serum proteins (plaqueproteome, Table 2)", "conditions": "higher number = stronger affinity", "summary_of_the_method": "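AD-subject plasma or serum (800 μL of 50%) mixed with 30 μg preformed alpha-synuclein aggregates for 1 h at 37 °C; Thioflavin S-positive particles isolated by flow sorting. After reduction, acrylamide alkylation and overnight tryptic digestion, serum proteins identified by MS/MS with Sequest and Scaffold.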"}
{"molecule": "B1", "Semi-quantitative analysis of proteins binding to different plaque particles: Synuclein": 1}
{"molecule": "B2", "Semi-quantitative analysis of proteins binding to different plaque particles: Synuclein": 2}
{"molecule": "B3", "Semi-quantitative analysis of proteins binding to different plaque particles: Synuclein": 4}
{"molecule": "B4", "Semi-quantitative analysis of proteins binding to different plaque particles: Synuclein": 2}
{"molecule": "B5", "Semi-quantitative analysis of proteins binding to different plaque particles: Synuclein": 1}
{"molecule": "B6", "Semi-quantitative analysis of proteins binding to different plaque particles: Synuclein": 0}
{"molecule": "B7", "Semi-quantitative analysis of proteins binding to different plaque particles: Synuclein": 0}
{"molecule": "B8", "Semi-quantitative analysis of proteins binding to different plaque particles: Synuclein": 0}
{"tested_on": "Tau plaque particles", "assay": "Mass spectroscopy proteomics, semi-quantitative binding affinity of serum proteins (plaqueproteome, Table 2)", "parameters": "species or system human", "conditions": "higher number = stronger affinity", "summary_of_the_method": "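Serum or plasma proteins captured on Thioflavin S-labelled Tau plaque particles (Tau-74, Tau-275 oligomers preformed in PBS at 37° C for 2 h; 1 h co-incubation at 37° C) were isolated by FACS sorting, then tryptically digested and identified by MS/MS (Sequest, human UniProt, strict trypsin).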"}
{"molecule": "B1", "Semi-quantitative analysis of proteins binding to different plaque particles: Tau": 1}
{"molecule": "B2", "Semi-quantitative analysis of proteins binding to different plaque particles: Tau": 1}
{"molecule": "B3", "Semi-quantitative analysis of proteins binding to different plaque particles: Tau": 4}
{"molecule": "B4", "Semi-quantitative analysis of proteins binding to different plaque particles: Tau": 1}
{"molecule": "B5", "Semi-quantitative analysis of proteins binding to different plaque particles: Tau": 4}
{"molecule": "B6", "Semi-quantitative analysis of proteins binding to different plaque particles: Tau": 2}
{"molecule": "B7", "Semi-quantitative analysis of proteins binding to different plaque particles: Tau": 1}
{"molecule": "B8", "Semi-quantitative analysis of proteins binding to different plaque particles: Tau": 1}
